Source: US20260183411A1, “TARGETING SORTILIN” (priority 2024, published 2026)
Bridges are numbered along the chain shown (N, C = ends). Where no end group is shown, it is not given here. Side-chain parts run from the residue outwards. [ ]: non-standard residue; d: D form. tBuAla = CC(C)(C)C[C@H](N)C(=O)O; Tle = CC(C)(C)[C@H](N)C(=O)O; linker = not defined here; Nle = CCCC[C@H](N)C(=O)O; siRNA = not defined here

What was measured:
rat SORT1 (76-752)-His = target: T1, rat SORT1 (76-752)-His (rat, UniProt O54861 76-752); assay: SPR (Biacore 8K), SORT1 on CM5 chip, siRNA-peptide conjugate as analyte, 1:1 model
T1 construct: range 76-752; Amine-coupled to CM5 chip for SPR
T1 sequence (looked up): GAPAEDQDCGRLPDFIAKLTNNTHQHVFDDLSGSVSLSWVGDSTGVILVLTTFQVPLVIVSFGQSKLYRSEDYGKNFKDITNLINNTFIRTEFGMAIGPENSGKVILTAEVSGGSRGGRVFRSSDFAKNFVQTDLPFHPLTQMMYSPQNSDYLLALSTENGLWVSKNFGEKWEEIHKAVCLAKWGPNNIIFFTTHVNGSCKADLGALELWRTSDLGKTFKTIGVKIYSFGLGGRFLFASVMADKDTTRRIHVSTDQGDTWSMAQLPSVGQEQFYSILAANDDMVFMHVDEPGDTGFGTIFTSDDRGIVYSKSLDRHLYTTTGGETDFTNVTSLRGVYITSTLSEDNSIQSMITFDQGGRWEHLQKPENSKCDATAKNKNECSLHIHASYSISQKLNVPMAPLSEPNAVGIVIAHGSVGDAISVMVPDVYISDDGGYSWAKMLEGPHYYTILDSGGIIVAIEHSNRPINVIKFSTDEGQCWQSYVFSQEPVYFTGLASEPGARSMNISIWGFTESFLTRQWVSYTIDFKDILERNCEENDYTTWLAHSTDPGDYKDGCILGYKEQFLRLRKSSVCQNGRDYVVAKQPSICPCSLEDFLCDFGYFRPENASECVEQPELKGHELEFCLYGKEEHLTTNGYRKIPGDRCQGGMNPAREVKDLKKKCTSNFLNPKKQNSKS
Method: (§1) SPR analysis was performed on Series S CM5 chips (Cytiva) using a Biacore 8K instrument (Cytiva). Sensorgrams were double-referenced by subtracting the response on both a reference flow cell and a blank sample. Human SORT1 (78-755)-His (Acrobiosystems), human SORT1 (78-755)-His(GenScript), mouse SORT1 (76-753)-His (R&D Systems), rat SORT1 (76-752)-His (GenScript), and cyno SORT1 (76-753)-His (GenScript) were diluted to 20-60 μg/mL in 10 mM sodium acetate pH 4.5 buffer and immobilized onto Series S CM5 chips using amine coupling at a flow rate of 10 μL/min for 45-100 s.
(§2) Ten start-up cycles and a blank cycle preceded each analysis run. The runs were performed by sequential injections of analyte (0-20 nM, 3-fold serial dilutions) with a 90 s association and 900 s dissociation at a flow rate of 30 μL/min, followed by two regeneration cycles with 2 M MgCl2 for 90 s at a flow rate of 10 μL/min. […] Five start-up cycles and a blank cycle preceded each analysis run. The runs were performed by sequential injections of analyte (0-25 nM) with a 150 seconds (s) association and 300 s dissociation at a flow rate of 30 μL/min, followed by a regeneration with 2 M MgCl₂ for 200 s at a flow rate of 10 μL/min. The kinetic rate constants (kₐ and kd) and the equilibrium binding constant (Kd) were calculated using a 1:1 kinetic binding model on the Biacore Insight Evaluation Software (Cytiva).
(§3) SPR analysis was performed on Series S CM5 chips (Cytiva) using a Biacore 8K instrument (Cytiva). Sensorgrams were double-referenced by subtracting the response on both a reference flow cell and a blank sample. The SPR analysis was conducted using four different SORT1 species: Human SORT1, Mouse SORT1, Rat SORT1, and Cyno SORT1. The samples were prepared according to the general procedure described above herein. The kinetic rate constants (ka and […]) and the equilibrium binding constant (Kd) were calculated using a 1:1 kinetic binding model on the Biacore Insight Evaluation Software (Cytiva).

cyno SORT1 (76-753)-His = target: T2, cyno SORT1 (76-753)-His (cyno, UniProt A0A2K5VHG2 74-751); assay: as above
T2 construct: range 76-753; Amine-coupled to CM5 chip for SPR
T2 sequence: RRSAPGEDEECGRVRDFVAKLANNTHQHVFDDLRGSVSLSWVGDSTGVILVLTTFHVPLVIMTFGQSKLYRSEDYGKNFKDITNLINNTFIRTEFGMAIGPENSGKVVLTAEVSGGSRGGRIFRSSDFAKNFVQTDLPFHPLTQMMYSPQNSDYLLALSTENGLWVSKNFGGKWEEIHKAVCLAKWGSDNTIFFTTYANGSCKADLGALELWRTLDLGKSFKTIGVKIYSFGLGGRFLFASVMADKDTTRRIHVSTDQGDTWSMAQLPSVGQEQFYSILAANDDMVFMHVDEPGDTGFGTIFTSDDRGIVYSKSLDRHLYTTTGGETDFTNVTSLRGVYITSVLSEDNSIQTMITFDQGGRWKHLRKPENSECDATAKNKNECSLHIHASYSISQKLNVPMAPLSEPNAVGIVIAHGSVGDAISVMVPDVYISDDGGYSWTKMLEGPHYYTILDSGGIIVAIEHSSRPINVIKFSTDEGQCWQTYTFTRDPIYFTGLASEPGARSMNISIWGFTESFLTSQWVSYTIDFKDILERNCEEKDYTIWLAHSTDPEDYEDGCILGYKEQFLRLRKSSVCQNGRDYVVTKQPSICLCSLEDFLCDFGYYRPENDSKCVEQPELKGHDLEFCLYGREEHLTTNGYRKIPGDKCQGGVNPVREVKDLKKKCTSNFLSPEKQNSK
Method: as §1, §2, §3

Kd (rat SORT1 (76-752)-His): 253 nM
Kd (cyno SORT1 (76-753)-His): 191 nM
B1: SORT1 peptide 3 conjugate (peptide)
peptide: RWCENK([linker-siRNA])R[Nle]FTCRQ[Tle][tBuAla]
modifications: disulfide 3-11 (inferred); not fully specified; printed as RWCENKR(Nle)FTCRQ(B13)(F02); reading uncertain
notes: also called SORT1 peptide 3 siRNA conjugate
